# Reference: IntAct's records for PubMed 31515488
# B1: Four and a half LIM domains protein 2 (Homo sapiens), Q14192 (parent)
# chain: MTERFDCHHCNESLFGKKYILREESPYCVVCFETLFANTCEECGKPIGCDCKDLSYKDRHWHEACFHCSQCRNSLVDKPFAAKEDQLLCTDCYSNEYSSKCQECKKTIMPGTRKMEYKGSSWHETCFICHRCQQPIGTKSFIPKDNQNFCVPCYEKQHAMQCVQCKKPITTGGVTYREQPWHKECFVCTACRKQLSGQRFTARDDFAYCLNCFCDLYAKKCAGCTNPISGLGGTKYISFEERQWHNDCFNCKKCSLSLVGRGFLTERDDILCPDCGKDI
# partner: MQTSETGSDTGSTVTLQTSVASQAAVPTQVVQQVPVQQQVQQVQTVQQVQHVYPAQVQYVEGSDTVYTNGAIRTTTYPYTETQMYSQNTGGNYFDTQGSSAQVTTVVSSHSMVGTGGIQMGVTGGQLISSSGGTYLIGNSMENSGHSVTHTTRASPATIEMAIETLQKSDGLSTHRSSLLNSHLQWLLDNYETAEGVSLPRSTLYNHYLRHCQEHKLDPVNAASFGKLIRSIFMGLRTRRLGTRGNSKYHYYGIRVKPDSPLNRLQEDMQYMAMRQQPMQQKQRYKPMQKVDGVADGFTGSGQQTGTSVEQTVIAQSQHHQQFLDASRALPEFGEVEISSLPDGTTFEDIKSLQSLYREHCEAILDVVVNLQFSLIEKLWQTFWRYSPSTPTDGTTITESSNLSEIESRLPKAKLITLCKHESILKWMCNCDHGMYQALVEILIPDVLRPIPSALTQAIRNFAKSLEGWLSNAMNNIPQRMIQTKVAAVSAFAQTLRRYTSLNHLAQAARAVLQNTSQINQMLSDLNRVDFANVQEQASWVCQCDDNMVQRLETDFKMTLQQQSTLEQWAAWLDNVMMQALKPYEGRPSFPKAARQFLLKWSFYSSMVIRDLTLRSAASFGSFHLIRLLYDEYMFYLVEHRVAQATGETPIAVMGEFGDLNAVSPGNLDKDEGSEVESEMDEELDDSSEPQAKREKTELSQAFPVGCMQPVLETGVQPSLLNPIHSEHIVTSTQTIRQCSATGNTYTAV
# B2: Polyunsaturated fatty acid 5-lipoxygenase (Homo sapiens), P09917 (parent)
# chain: MPSYTVTVATGSQWFAGTDDYIYLSLVGSAGCSEKHLLDKPFYNDFERGAVDSYDVTVDEELGEIQLVRIEKRKYWLNDDWYLKYITLKTPHGDYIEFPCYRWITGDVEVVLRDGRAKLARDDQIHILKQHRRKELETRQKQYRWMEWNPGFPLSIDAKCHKDLPRDIQFDSEKGVDFVLNYSKAMENLFINRFMHMFQSSWNDFADFEKIFVKISNTISERVMNHWQEDLMFGYQFLNGCNPVLIRRCTELPEKLPVTTEMVECSLERQLSLEQEVQQGNIFIVDFELLDGIDANKTDPCTLQFLAAPICLLYKNLANKIVPIAIQLNQIPGDENPIFLPSDAKYDWLLAKIWVRSSDFHVHQTITHLLRTHLVSEVFGIAMYRQLPAVHPIFKLLVAHVRFTIAINTKAREQLICECGLFDKANATGGGGHVQMVQRAMKDLTYASLCFPEAIKARGMESKEDIPYYFYRDDGLLVWEAIRTFTAEVVDIYYEGDQVVEEDPELQDFVNDVYVYGMRGRKSSGFPKSVKSREQLSEYLTVVIFTASAQHAAVNFGQYDWCSWIPNAPPTMRAPPPTAKGVVTIEQIVDTLPDRGRSCWHLGAVWALSQFQENELFLGMYPEEHFIEKPVKEAMARFRKNLEAIVSVIAERNKKKQLPYYYLSPDRIPNSVAI
# B3: Cyclin-dependent kinase 4 inhibitor D (Homo sapiens), P55273 (parent)
# chain: MLLEEVRAGDRLSGAAARGDVQEVRRLLHRELVHPDALNRFGKTALQVMMFGSTAIALELLKQGASPNVQDTSGTSPVHDAARTGFLDTLKVLVEHGADVNVPDGTGALPIHLAVQEGHTAVVSFLAAESDLHRRDARGLTPLELALQRGAQDLVDILQGHMVAPL
# partner: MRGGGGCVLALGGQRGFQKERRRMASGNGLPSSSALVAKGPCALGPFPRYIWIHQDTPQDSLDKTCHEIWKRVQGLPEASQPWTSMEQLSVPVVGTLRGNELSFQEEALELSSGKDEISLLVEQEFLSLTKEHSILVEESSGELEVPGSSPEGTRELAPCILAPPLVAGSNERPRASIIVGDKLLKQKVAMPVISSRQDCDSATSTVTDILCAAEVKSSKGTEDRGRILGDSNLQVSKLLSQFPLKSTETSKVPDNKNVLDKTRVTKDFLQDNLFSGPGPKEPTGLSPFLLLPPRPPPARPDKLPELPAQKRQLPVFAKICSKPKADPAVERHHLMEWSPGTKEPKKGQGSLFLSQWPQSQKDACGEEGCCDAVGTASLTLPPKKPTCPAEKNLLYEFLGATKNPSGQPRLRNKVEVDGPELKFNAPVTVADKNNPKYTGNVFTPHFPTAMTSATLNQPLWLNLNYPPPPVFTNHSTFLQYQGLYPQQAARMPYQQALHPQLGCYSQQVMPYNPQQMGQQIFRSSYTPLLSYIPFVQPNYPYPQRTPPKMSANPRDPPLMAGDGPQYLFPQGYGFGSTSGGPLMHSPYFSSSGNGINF
# B4: Embryonal Fyn-associated substrate (Homo sapiens), O43281 (parent)
# chain: MAIATSTQLARALYDNTAESPQELSFRRGDVLRVLQREGAGGLDGWCLCSLHGQQGIVPANRVKLLPAGPAPKPSLSPASPAQPGSPYPAPDHSNEDQEVYVVPPPARPCPTSGPPAGPCPPSPDLIYKIPRASGTQLAAPRDALEVYDVPPTALRVPSSGPYDCPASFSHPLTRVAPQPPGEDDAPYDVPLTPKPPAELEPDLEWEGGREPGPPIYAAPSNLKRASALLNLYEAPEELLADGEGGGTDEGIYDVPLLGPEAPPSPEPPGALASHDQDTLAQLLARSPPPPHRPRLPSAESLSRRPLPALPVPEAPSPSPVPSPAPGRKGSIQDRPLPPPPPRLPGYGGPKVEGDPEGREMEDDPAGHHNEYEGIPMAEEYDYVHLKGMDKAQGSRPPDQACTGDPELPERGMPAPQEALSPGEPLVVSTGDLQLLYFYAGQCQSHYSALQAAVAALMSSTQANQPPRLFVPHSKRVVVAAHRLVFVGDTLGRLAASAPLRAQVRAAGTALGQALRATVLAVKGAALGYPSSPAIQEMVQCVTELAGQALQFTTLLTSLAP
# Variants of: B1
# Conditions: with rfx3_human RFX3, P48380
row,Variant,effect of a mutation on the interaction
1,MTERFDCHHCNESLFGKKYILREESPYCVVCFETLFSNTCEECGKPIGCDCKDLSYKDRHWHEACFHCSQCRNSLVDKPFAAKEDQLLCTDCYSNEYSSKCQECKKTIMPGTRKMEYKGSSWHETCFICHRCQQPIGTKSFIPKDNQNFCVPCYEKQHAMQCVQCKKPITTGGVTYREQPWHKECFVCTACRKQLSGQRFTARDDFAYCLNCFCDLYAKKCAGCTNPISGLGGTKYISFEERQWHNDCFNCKKCSLSLVGRGFLTERDDILCPDCGKDI [A37S],with no effect
2,MTERFDCHHCNESLFGKKYILREESPYCVVCFETLFANTCEECGKPIGCDCKDLSYKDRHWHEACFHCSQCRNSLVDKPFAAKEDQLLCTDCYSKEYSSKCQECKKTIMPGTRKMEYKGSSWHETCFICHRCQQPIGTKSFIPKDNQNFCVPCYEKQHAMQCVQCKKPITTGGVTYREQPWHKECFVCTACRKQLSGQRFTARDDFAYCLNCFCDLYAKKCAGCTNPISGLGGTKYISFEERQWHNDCFNCKKCSLSLVGRGFLTERDDILCPDCGKDI [N95K],with no effect

# Variants of: B2
# Conditions: with cep63_human CEP63, Q96MT8
# Sequence of cep63_human CEP63, Q96MT8 (Q96MT8 whole entry): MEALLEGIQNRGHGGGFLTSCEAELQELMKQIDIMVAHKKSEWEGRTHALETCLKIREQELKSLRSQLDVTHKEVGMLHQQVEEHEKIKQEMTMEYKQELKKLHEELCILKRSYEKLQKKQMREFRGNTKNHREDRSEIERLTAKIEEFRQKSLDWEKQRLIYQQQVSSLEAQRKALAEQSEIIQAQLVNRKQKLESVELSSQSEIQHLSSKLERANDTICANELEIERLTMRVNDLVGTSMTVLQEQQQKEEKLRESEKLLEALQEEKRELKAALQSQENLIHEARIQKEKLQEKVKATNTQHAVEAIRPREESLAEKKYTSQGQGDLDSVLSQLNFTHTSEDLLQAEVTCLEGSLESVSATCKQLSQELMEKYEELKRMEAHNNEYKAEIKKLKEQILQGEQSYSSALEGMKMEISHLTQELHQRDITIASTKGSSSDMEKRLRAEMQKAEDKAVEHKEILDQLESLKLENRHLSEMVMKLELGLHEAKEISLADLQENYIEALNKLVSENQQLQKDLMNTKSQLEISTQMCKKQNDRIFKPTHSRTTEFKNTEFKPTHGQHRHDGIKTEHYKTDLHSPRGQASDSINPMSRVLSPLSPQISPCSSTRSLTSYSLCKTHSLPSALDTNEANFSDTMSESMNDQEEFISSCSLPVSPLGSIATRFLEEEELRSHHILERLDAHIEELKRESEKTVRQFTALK
row,Variant,effect of a mutation on the interaction
1,E254K,with no effect

# Variants of: B2
# Conditions: with nutm1_human NUTM1, Q86Y26
# Sequence of nutm1_human NUTM1, Q86Y26 (Q86Y26 whole entry): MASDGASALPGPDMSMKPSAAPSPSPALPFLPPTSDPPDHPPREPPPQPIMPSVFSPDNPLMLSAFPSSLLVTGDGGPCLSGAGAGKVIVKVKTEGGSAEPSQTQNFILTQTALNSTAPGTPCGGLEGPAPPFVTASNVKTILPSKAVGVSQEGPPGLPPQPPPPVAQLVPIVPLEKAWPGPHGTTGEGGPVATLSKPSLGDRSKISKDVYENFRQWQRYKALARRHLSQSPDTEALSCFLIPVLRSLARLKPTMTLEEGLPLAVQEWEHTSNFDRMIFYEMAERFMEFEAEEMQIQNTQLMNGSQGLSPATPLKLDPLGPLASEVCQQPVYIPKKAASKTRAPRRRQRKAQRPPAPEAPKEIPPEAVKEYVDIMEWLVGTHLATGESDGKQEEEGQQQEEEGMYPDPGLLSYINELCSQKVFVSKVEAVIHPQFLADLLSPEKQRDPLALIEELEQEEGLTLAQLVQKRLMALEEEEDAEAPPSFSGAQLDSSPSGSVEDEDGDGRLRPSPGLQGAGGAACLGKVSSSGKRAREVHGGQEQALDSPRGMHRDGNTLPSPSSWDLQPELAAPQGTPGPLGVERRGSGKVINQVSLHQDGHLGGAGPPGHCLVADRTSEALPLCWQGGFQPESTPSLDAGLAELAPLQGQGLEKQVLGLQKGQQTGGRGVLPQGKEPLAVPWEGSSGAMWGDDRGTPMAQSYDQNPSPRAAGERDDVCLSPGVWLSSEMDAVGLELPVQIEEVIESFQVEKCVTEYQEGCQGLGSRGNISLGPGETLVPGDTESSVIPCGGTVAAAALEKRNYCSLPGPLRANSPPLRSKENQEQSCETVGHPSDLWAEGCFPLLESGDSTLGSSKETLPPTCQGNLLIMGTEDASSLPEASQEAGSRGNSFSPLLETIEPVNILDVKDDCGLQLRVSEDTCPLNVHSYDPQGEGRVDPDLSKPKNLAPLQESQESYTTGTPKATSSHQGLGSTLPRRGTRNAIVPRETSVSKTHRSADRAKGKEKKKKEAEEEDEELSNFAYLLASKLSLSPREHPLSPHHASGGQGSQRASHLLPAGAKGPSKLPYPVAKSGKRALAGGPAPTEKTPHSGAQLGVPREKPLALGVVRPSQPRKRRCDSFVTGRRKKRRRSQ
row,Variant,effect of a mutation on the interaction
1,E254K,with no effect

# Variants of: B3
# Conditions: with ca094_human C1orf94, Q6P1W5
row,Variant,effect of a mutation on the interaction
1,MLLEEVRAGDRLSGAAARGDVQEVRRLLHRELVHPDALNRFGKTALQVMMFGSTAIALELLKQGASPNVQDTSGTSPVHDAARTGFLDTLKVLVEHGADVNVPDGTGALPIHLAVQEGHTAVVSFLAAESDLHRRDARGLTSLELALQRGAQDLVDILQGHMVAPL [P142S],with no effect

# Variants of: B4
# Conditions: with blk_human BLK
row,Variant,effect of a mutation on the interaction
1,MAIATSTQLARALYDNTAESPQELSFRRGDVLRVLQREGAGGLDGWCLCSLHGQQGIVPANRVKLLPAGPAPKPSLSPASPAQPGSPYPAPDHSNEDQEVYVVPPPARPCPTSGPPAGPCPPSPDLIYKIPRASGTQLADPRDALEVYDVPPTALRVPSSGPYDCPASFSHPLTRVAPQPPGEDDAPYDVPLTPKPPAELEPDLEWEGGREPGPPIYAAPSNLKRASALLNLYEAPEELLADGEGGGTDEGIYDVPLLGPEAPPSPEPPGALASHDQDTLAQLLARSPPPPHRPRLPSAESLSRRPLPALPVPEAPSPSPVPSPAPGRKGSIQDRPLPPPPPRLPGYGGPKVEGDPEGREMEDDPAGHHNEYEGIPMAEEYDYVHLKGMDKAQGSRPPDQACTGDPELPERGMPAPQEALSPGEPLVVSTGDLQLLYFYAGQCQSHYSALQAAVAALMSSTQANQPPRLFVPHSKRVVVAAHRLVFVGDTLGRLAASAPLRAQVRAAGTALGQALRATVLAVKGAALGYPSSPAIQEMVQCVTELAGQALQFTTLLTSLAP [A140D],with no effect

# Variants of: B4
# Conditions: with nck2_human NCK2, O43639
# Sequence of nck2_human NCK2, O43639 (O43639 whole entry): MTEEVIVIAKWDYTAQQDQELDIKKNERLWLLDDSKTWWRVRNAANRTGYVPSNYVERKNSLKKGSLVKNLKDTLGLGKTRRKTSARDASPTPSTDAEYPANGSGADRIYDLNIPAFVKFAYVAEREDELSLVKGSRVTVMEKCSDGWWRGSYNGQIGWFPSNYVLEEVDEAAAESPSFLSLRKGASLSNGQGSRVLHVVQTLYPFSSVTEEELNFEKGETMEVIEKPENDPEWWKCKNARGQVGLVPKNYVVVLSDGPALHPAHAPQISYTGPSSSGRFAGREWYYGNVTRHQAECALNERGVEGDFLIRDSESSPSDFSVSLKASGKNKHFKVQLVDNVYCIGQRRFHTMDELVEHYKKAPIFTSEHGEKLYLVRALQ
row,Variant,effect of a mutation on the interaction
1,MAIATSTQLARALYDNTAESPQELSFRRGDVLRVLQREGAGGLDGWCLCSLHGQQGIVPANRVKLLPAGPAPKPSLSPASPAQPGSPYPAPDHSNEDQEVYVVPPPARPCPTSGPPAGPCPPSPDLIYKIPRASGTQLADPRDALEVYDVPPTALRVPSSGPYDCPASFSHPLTRVAPQPPGEDDAPYDVPLTPKPPAELEPDLEWEGGREPGPPIYAAPSNLKRASALLNLYEAPEELLADGEGGGTDEGIYDVPLLGPEAPPSPEPPGALASHDQDTLAQLLARSPPPPHRPRLPSAESLSRRPLPALPVPEAPSPSPVPSPAPGRKGSIQDRPLPPPPPRLPGYGGPKVEGDPEGREMEDDPAGHHNEYEGIPMAEEYDYVHLKGMDKAQGSRPPDQACTGDPELPERGMPAPQEALSPGEPLVVSTGDLQLLYFYAGQCQSHYSALQAAVAALMSSTQANQPPRLFVPHSKRVVVAAHRLVFVGDTLGRLAASAPLRAQVRAAGTALGQALRATVLAVKGAALGYPSSPAIQEMVQCVTELAGQALQFTTLLTSLAP [A140D],with no effect

# Variants of: B4
# Conditions: with abi2_human ABI2, Q9NYB9
# Sequence of abi2_human ABI2, Q9NYB9 (Q9NYB9 whole entry): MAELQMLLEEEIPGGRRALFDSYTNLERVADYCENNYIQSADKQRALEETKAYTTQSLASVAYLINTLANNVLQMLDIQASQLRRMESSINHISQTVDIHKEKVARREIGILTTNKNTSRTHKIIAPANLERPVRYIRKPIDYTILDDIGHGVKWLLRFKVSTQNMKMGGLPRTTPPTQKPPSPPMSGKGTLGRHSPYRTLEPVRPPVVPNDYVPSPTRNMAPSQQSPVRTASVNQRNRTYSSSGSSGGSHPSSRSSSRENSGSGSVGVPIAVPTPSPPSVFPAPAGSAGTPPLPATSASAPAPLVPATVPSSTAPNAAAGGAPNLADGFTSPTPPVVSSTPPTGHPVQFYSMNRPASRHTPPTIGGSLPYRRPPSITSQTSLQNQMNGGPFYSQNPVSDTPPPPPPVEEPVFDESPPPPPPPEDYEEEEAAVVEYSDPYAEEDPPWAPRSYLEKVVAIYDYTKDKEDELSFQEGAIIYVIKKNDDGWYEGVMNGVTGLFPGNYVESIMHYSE
row,Variant,effect of a mutation on the interaction
1,MAIATSTQLARALYDNTAESPQELSFRRGDVLRVLQREGAGGLDGWCLCSLHGQQGIVPANRVKLLPAGPAPKPSLSPASPAQPGSPYPAPDHSNEDQEVYVVPPPARPCPTSGPPAGPCPPSPDLIYKIPRASGTQLADPRDALEVYDVPPTALRVPSSGPYDCPASFSHPLTRVAPQPPGEDDAPYDVPLTPKPPAELEPDLEWEGGREPGPPIYAAPSNLKRASALLNLYEAPEELLADGEGGGTDEGIYDVPLLGPEAPPSPEPPGALASHDQDTLAQLLARSPPPPHRPRLPSAESLSRRPLPALPVPEAPSPSPVPSPAPGRKGSIQDRPLPPPPPRLPGYGGPKVEGDPEGREMEDDPAGHHNEYEGIPMAEEYDYVHLKGMDKAQGSRPPDQACTGDPELPERGMPAPQEALSPGEPLVVSTGDLQLLYFYAGQCQSHYSALQAAVAALMSSTQANQPPRLFVPHSKRVVVAAHRLVFVGDTLGRLAASAPLRAQVRAAGTALGQALRATVLAVKGAALGYPSSPAIQEMVQCVTELAGQALQFTTLLTSLAP [A140D],with no effect

# Variants of: B4
# Conditions: with fyn_human FYN
row,Variant,effect of a mutation on the interaction
1,MAIATSTQLARALYDNTAESPQELSFRRGDVLRVLQREGAGGLDGWCLCSLHGQQGIVPANRVKLLPAGPAPKPSLSPASPAQPGSPYPAPDHSNEDQEVYVVPPPARPCPTSGPPAGPCPPSPDLIYKIPRASGTQLADPRDALEVYDVPPTALRVPSSGPYDCPASFSHPLTRVAPQPPGEDDAPYDVPLTPKPPAELEPDLEWEGGREPGPPIYAAPSNLKRASALLNLYEAPEELLADGEGGGTDEGIYDVPLLGPEAPPSPEPPGALASHDQDTLAQLLARSPPPPHRPRLPSAESLSRRPLPALPVPEAPSPSPVPSPAPGRKGSIQDRPLPPPPPRLPGYGGPKVEGDPEGREMEDDPAGHHNEYEGIPMAEEYDYVHLKGMDKAQGSRPPDQACTGDPELPERGMPAPQEALSPGEPLVVSTGDLQLLYFYAGQCQSHYSALQAAVAALMSSTQANQPPRLFVPHSKRVVVAAHRLVFVGDTLGRLAASAPLRAQVRAAGTALGQALRATVLAVKGAALGYPSSPAIQEMVQCVTELAGQALQFTTLLTSLAP [A140D],with no effect
